Reference: patent publication US20150351390A1, “COMPOSITIONS AND METHODS FOR AUXIN-ANALOG CONJUGATION” (PIONEER HI-BRED INTERNATIONAL, INC., priority 2012, published 2015)

How the values were obtained:
[1] = LC-MS assay of GH3 conjugation of IAA with Asp or Glu; format: biochemical; conditions: for kcat (hrs−1) IAA-Asp: conjugation of IAA with Asp by recombinant GH3 protein, IAA-Asp product by LC-MS; for kcat (hrs−1) IAA-Glu: conjugation of IAA with Glu by recombinant GH3 protein, IAA-Glu product by LC-MS; for IAA conjugation activity with Asp or Glu: result in words
Procedure: (§1) To detect and monitor the formation of acyl conjugates with 2,4-D or dicamba, a sensitive LC-MS method was developed using the respective amino acid conjugate standards. […] The reaction was performed at 30° C., 105 rpm, for 3 hours in buffer containing 20 mM Tris-HCl (pH 8.0), 5 mM MgCl2, 5 mM auxin (IAA, 2,4-D or dicamba), 5 mM ATP, 5 mM Asp or Glu, 1 mM DTT and 44 to 164 μg/mL purified GH3 protein in 100 μL reaction. After 3 hours of reaction, 400 μL 100% MeOH was added to the reaction mixture for protein precipitation. The supernatant was diluted 20× in water and then analyzed by LC-MS (AB Sciex 4000 QTrap coupled with Shimadzu Nexera UHPLC) using a Phenomenex Luna 3 μm Phenyl-Hexyl (00B-4256-Y0) column. The concentration of the conjugates was calculated based on the standards. Kinetic parameters were estimated by fitting initial velocity values to the Michaelis-Menten equation.
(§2) The GH3 superfamily conjugase activity analysis of IAA, 2,4-D or dicamba with Asp or Glu was done using LC-MS to analyze the final conjugate products as described in Example 1. Protein sequences of GH3 homologs (Table 3) were obtained from public databases (NCBI, http://www.ncbi.nlm.nih.gov/) by Blast analysis of AtGH3.17 protein sequence (accession # Q9FZ87). Coding sequences were designed for optimal expression in E. coli based on the protein sequences and synthesized. Synthesized coding sequences along with N-term his-tag coding sequences were cloned into a pET24a-based E. coli expression vector. The E. coli expression vectors were transformed into OverExpress C41(DE3) cells (Lucigen) for protein expression. Recombinant E. coli strains were inoculated into 5 ml LB media supplemented with 40 mg/L kanamycin and cultured overnight at 37° C. The overnight culture (0.5 mL) was inoculated into 50 mL LB medium plus 40 mg/L kanamycin and grown at 30° C. until OD600 reached 0.6. The cultures were induced with 0.2 mM IPTG at 16° C., 230 rpm overnight. Cells were harvested by centrifugation at 7,000 rpm for 10 mins. The cell pellet from 50 mL of cell culture was frozen and thawed twice and then lysed in 800 μL lysis buffer A (150 mM NaCl, 50 mM Tris-HCl pH 8.0, 5 mM MgCl2, 10% glycerol) plus 20 mM imidazole, 1 mM DTT, 0.2 mg/ml lysozyme, 1/200 protease inhibitor cocktail (EMD set3, EDTA free) and 1/2000 endonuclease. Lysate was then centrifuged at 13,000 rpm for 30 min at 4° C. Supernatant was loaded onto 200 μL Ni-NTA columns pre-equilibrated with buffer A with 20 mM imidazole at 4° C. Each column was then washed with (1) 2×800 μL of buffer A with 10 mM imidazole, (2) 2×800 μL of buffer A with 20 mM imidazole and (3) 2×200 μL of buffer A with 50 mM imidazole. Protein was eluted with 200 μL of buffer A with 250 mM imidazole. The concentration was measured by Bradford assay. Purified protein was used in conjugation reaction assays as described in example 1.

[2] = LC-MS assay of GH3 conjugation of 2,4-D with Asp or Glu; format: biochemical; conditions: for kcat (hrs−1) 2,4-D-Asp: conjugation of 2,4-D with Asp by recombinant GH3 protein, 2,4-D-Asp product by LC-MS; for kcat (hrs−1) 2,4-D-Asp / kcat (hrs−1) 2,4-D-Glu: 5 mM 2,4-D substrate; for kcat (hrs−1) 2,4-D-Glu: conjugation of 2,4-D with Glu by recombinant GH3 protein, 2,4-D-Glu product by LC-MS; for 2,4-D conjugation activity with Asp or Glu: result in words
Procedure: as §1, §2

B1: PpGH3-1: GH3 protein, accession CAD42870 (protein, listed as Physcomitrella patens)
chain: MASEVAKPVENGIHPKLEQSFDAPAATKPSNSELLKLHRDGVPFVMPSKRGIDTTAPDFDPQDFLDLLAEDVMFIQHEKLREILEVQADVEYLRRVGLNGRTDVESFRKCVPIVSYGDLEADIMRVVNGEKTPIFTVDPIVTLNLSSGTTAGKPKFIPSTTRAYEYFMFLQTFVTSIYRREFPGYKDGTSFTLAFAGKQIDTPSGIKAGAQSTNHFRGPMFRNRVRNANREYCVPDEVILSDDTTQSMYCHLLCALAQAPEIVKVYGTFAASIVSAVRALQKHWSEIVEDIRTGTLNAKITEPEMRTAVQQMLHPNPDLASRIEEECSKDNWEGILPRLFPNAHFVSCVISGSMLQYAPALKHFSGHLPTISLAYAACECSFIGFNPSMKCAPEDITYMLWPETAYYEFIPLDEDSNPEQDGDVVRTVEACDLEVGRQYELVVTNVIGLYRYRLGDVLTMKRFHKTAPVFEFVRRKNVILSVHTDKTDEKELQSVVNLATEALAGTGMELSDYTSTADVSTLPGRYVIFWEMVDSSDLDYDVLQHCANTLDANFNSDYRRWRSGHQIGPLELRIVKEGTFNRVMDSAVARGASPSQYKPPRCVNNPHTRQILDDGLVASFHSTITPNPAPIALTGS
kcat (hrs−1) IAA-Asp [1]: 0.000 h⁻¹ | kcat (hrs−1) IAA-Glu [1]: 0.000 h⁻¹ | IAA conjugation activity with Asp or Glu [1]: IAA-inactive | kcat (hrs−1) 2,4-D-Asp [2]: 0.078 h⁻¹ | kcat (hrs−1) 2,4-D-Glu [2]: 0.122 h⁻¹ | 2,4-D conjugation activity with Asp or Glu [2]: 2,4-D conjugases

B2: SmXP_002983845: GH3 protein, accession XP_002983845 (protein, listed as Selaginella moellendorffii)
chain: MENEQLLLEKLESSSWSPGEAQDKVLAEILEKNAATDYFNRHGLRAATKEVFRQRAPVIEYEDIKDEINRIADGEAATLLCANPIADMFTSSGTSGGAHKLFPKVEGHYAVSKYFFDLATALLNRDLPGLRTGKALYFLYVRSGRKTPGGLPAYPALTGYYNSLEFRNRPFDPSNDYTSPLEVILCTDSVQASYCHLLCGLIHARDVTKLGCFFASVFVRSIRCLEAWWQELSRDIRTGTLSERVVDPACREAVEKILRPDPELANVIDEACSSGSLKGIVRKLWPSAKAIDTVVTGAMEQYVGEVDYLTDGLPIASMIYASSESFFGVNLKPLCEPSQISYMFLPETSYYEFLPVARSEEKASREEPVELVDVEQGHEYELVITTNAGLYRYRMGDVLRVEGFHNKAPLFSFVCRTNVLLSIDSDKTDEKELQTAVMNAFAALRNGVTSKEGEAIRLTDYTSYADLSSNPPHYVIYWELSSELHLEPEKAGECCYKMEESLSVVYHRGRMERSIGALELRLVTPGTFNRIADDAASRGGSVSQFKLPRCIKKNATRMLEIVESGVYQQYFSPRAPKY
kcat (hrs−1) IAA-Asp [1]: 0.000 h⁻¹ | kcat (hrs−1) IAA-Glu [1]: 0.000 h⁻¹ | IAA conjugation activity with Asp or Glu [1]: IAA-inactive | kcat (hrs−1) 2,4-D-Asp [2]: 0.090 h⁻¹ | kcat (hrs−1) 2,4-D-Glu [2]: 0.052 h⁻¹ | 2,4-D conjugation activity with Asp or Glu [2]: 2,4-D conjugases

B3: SmXP_002986992: GH3 protein, accession XP_002986992 (protein, listed as Selaginella moellendorffii)
chain: MEDFEAVCKNAVQAQEEALVQILQRNGSCHYLQRFGQPLCLKSFKTQLPIISYDNISPELQQIADHGTSHLLLGCDPILYFSFSSGTSSGKHKILPQTNCGYSLLARAYASSNAYRDEVFPLESTKPIGLHFVYSGEQYKAKSGLLLGAGSTNYYKSEAYNQEAETLATPYEALLAGSDWQQTTYCHLLCGLVQRHKIEFIHATFAYTLSEAFRLLESDWKILCEDISARRVSESKVTDEKLRVPVLKLMERELRGKDSSQVAREISEIFVTSKESRWSGLLPLLWPRAKYVHTVVTGAMEPYIPVLKKYAGDKLAIVGFDYSASEGYLGINMRPATPPEEVVFTLIPYTMFFEFIPVDPEEVPDHQQGETLGFKDLQVGKQYELVVTTFEGLYRYRIGDVVKVTGFHHESPIVAFSYRKNAVLSINAEKVDEQELQKVVMGSAGPLEIANFTSCADFATKERPHYVIYWELKNDGDNSRHEELRDSCNALDRGFNAAYLVGRVDKTLGALELVTVKQGTFEKLMEKAIESGASASQYKTPRCIKSPALLELLDQGAIGRYTSSEDISSLLAEDWKPSVIHGL
kcat (hrs−1) IAA-Asp [1]: 0.000 h⁻¹ | kcat (hrs−1) IAA-Glu [1]: 0.000 h⁻¹ | IAA conjugation activity with Asp or Glu [1]: IAA-inactive | kcat (hrs−1) 2,4-D-Asp [2]: 0.000 h⁻¹ | kcat (hrs−1) 2,4-D-Glu [2]: 0.006 h⁻¹ | 2,4-D conjugation activity with Asp or Glu [2]: 2,4-D conjugases

B4: AIGH3-9: GH3 protein, accession EFH58389 (protein, listed as Arabidopsis lyrata)
chain: MDVMKLDYNYKGGNALTELERITSKAAEVQDNILCGILERNKDTEYLSKYMKGSKDVVEFKRSVPIITYKDIYPYIQRIANGEDSSLITGHPITEILCSSGTSAGEPKLMPTISEDLDRRTFLYNLIIPIVNKYIPGLDKGKAMYLNFVKAETSTPCGLPIRAVLTSYYKSKHFQCRPYDPFNDLTSPIQTILCEDSNQSMYCQLLAGLIHRHKVMRLGAVFASAFLRAISYLEKKWSQLCEDIRTGRLNPMITDPGCQIAMSCLLTSPDPELASEIEEICSRSSWKGILCHLWPRAKFIEAVVTGSMAQYIPALEFFGQGKIPLVCPMYASSETYFGVNVEPLSKPSDVVFTLLPNMCYFEFIPLGKNGALSFDLDDDEQVPCDKVVDLVNVKLGRYYELVVTTFAGLYRYRIGDVLQVAGFYNEAPQFRFICRRNVVLSIDLDKTNEEDLHRSITLAKKKLGSNAFLAEYTSYADTSSVPGHYVLFWEIQGHLEPKLMEGCCVAVEEELDYIYRQCRTKERSIGALEIRVVKPGTFEKLMDLIISQGGSFNQYKTPRCVKSNSATFKLLNGHVTASFFSPRDPTWVA
kcat (hrs−1) IAA-Asp [1]: 0.000 h⁻¹ | kcat (hrs−1) IAA-Glu [1]: 0.000 h⁻¹ | IAA conjugation activity with Asp or Glu [1]: IAA-inactive | kcat (hrs−1) 2,4-D-Asp [2]: 0.000 h⁻¹ | kcat (hrs−1) 2,4-D-Glu [2]: 0.015 h⁻¹ | 2,4-D conjugation activity with Asp or Glu [2]: 2,4-D conjugases

B5: AtGH3-9: GH3 protein, accession O82243 (protein, listed as Arabidopsis thaliana)
chain: MDVMKLDHDSVLKELERITSKAAEVQDNILRGILERNKDTEYLSKYMNGSKDVLEFKRAVPIIIYKDIYPYIQRIANGEDSSLITGHSITEILCSSGTSAGEPKLMPTIPEDLDRRTFLYNLIIPIVNKYITGLDKGKAMYLNFVKAETSTPCGLPIRAVLTSYYKSKHFQCRPYDPFNDLTSPIQTILCEDSNQSMYCQLLAGLIHRHKVMRLGAVFASAFLRAISYLEKKWSQLCEDIRTGSLNPMITDPGCQMAMSCLLMSPNPELASEIEEICGRSSWKGILCQLWPKAKFIEAVVTGSMAQYIPALEFFSQGKIPLVCPMYASSETYFGVNVEPLSKPSDVVFTLLPNMCYFEFIPLGKNGTLSFDLDDDEQVPCDKVVDLVNVKLGRYYELVVTTFAGLYRYRIGDVLQVAGFYNGAPQFRFICRRNVVLSIDLDKTNEEDLHRSITLAKKKLGSNAFLAEYTSYADTSSVPGHYVLFWEIQGHLEPKLMEECCVAVEEELDYIYRQCRTKERSIGALEIRVVKPGTFEKLMDLIISQGGSFNQYKTPRCVKSNSATFKLLNGHVMASFFSPRDPTWVP
kcat (hrs−1) IAA-Asp [1]: 0.000 h⁻¹ | kcat (hrs−1) IAA-Glu [1]: 0.000 h⁻¹ | IAA conjugation activity with Asp or Glu [1]: IAA-inactive | kcat (hrs−1) 2,4-D-Asp [2]: 0.000 h⁻¹ | kcat (hrs−1) 2,4-D-Glu [2]: 0.005 h⁻¹ | 2,4-D conjugation activity with Asp or Glu [2]: 2,4-D conjugases
